Data taken from US5576294A, “Human Kunitz-type protease inhibitor variant” (Novo Nordisk A/S, priority 1992, dated 1996).
Like-named read-outs stand apart in the source and are kept apart here.

What was measured:
[1] = molecular target: Human neutrophil elastase (human) (UniProt P08246); experiment: apparent Ki; 4 nM neutrophil elastase, substrate M4765, 30 min preincubation, residual activity at 405 nm
[2] = molecular target: Human neutrophil elastase (human) (UniProt P08246)
[3] = molecular target: T1, glandular kallikrein (porcine pancreatic kallikrein) (Sus scrofa, UniProt P00752); experiment: Inhibition of serine proteinases: glandular kallikrein; type: biochemical; conditions: Example 8; enzyme 1 U/ml, substrate S2266 0.6 mM, 30 min incubation; read-out: Apparent Ki (nM), Gl. kallikrein
T1 construct: purchased Sigma Chemical Co (St. Louis, Mo., U.S.A.)
Method: (§1) KFN 1593 was purified from yeast culture medium as described in example 1. The concentration of KFN 1593 was determined using 1% E280 nm =8.3 and Mw =6500. Porcine trypsin was from Novo Nordisk (Bagsv.ae butted.rd, Denmark), bovine chymotrypsin (TLCK treated) and porcine pancreatic kallikrein was from Sigma Chemical Co (St. Louis, Mo., U.S.A.), human plasmin and human plasma kallikrein was from Kabi (Stockholm, Sweden).
(§2) Human neutrophil elastase and cathepsin G was purified from extracts of PMNs according to the method described by Baugh and Travis (Biochemistry 15 (1976) 836-843). Peptidyl nitroanilide substrates, S2251, S2586, S2266, S2302 were from Kabi (Stockholm, Sweden). M4765 and S7388 was from Sigma Chemical Co (St. Louis, Mo., U.S.A.) and FXa-1 was from NycoMed (Oslo, Norway).
(§3) Serine proteinases were incubated with various concentrations of KFN 1593 for 30 min. Substrate was then added and residual proteinase activity was measured at 405 nm.
(§4) The three TFPI (domain II) variants were purified from yeast culture medium. Their concentrations were determined from the absorbance at 214 nm using BPTI as a standard. The final concentration was determined by titration with trypsin. Porcine trypsin and human recombinant proteins, factor VIIa, activated protein C (ACP), and tPA were obtained from Novo Nordisk A/S (Bagsvaerd, Denmark), so was human thrombin. Bovine chymotrypsin and glandular kallikrein were obtained from Sigma Chemical Co. (St. Louis, Mo., U.S.A.). Truncated human recombinant tissue factor was obtained from Corvas (San Diego, Calif., U.S.A.). Human neutrophil cathepsin G was purified from extracts of PMNs according to the method described by Baugh and Travis (Biochemistry 15 (1976) 836-843). Human plasmin was from Kabi (Stockholm, Sweden), uPA was from Serono (Milan, Italy), human factor Xa was a gift from Dr. W. Kisiel (Albuquerque, N.M., U.S.A.), and human plasma kallikrein was a gift from Dr. I Schousboe (Copenhagen, Denmark).
(§5) Peptidyl nitroanilide substrates, S2251, S2302, S2266, S2586, S2288, S2444, S2366, and S2238 were from Kabi (Stockholm, Sweden). S7388 and M4765 were from Sigma Chemical Co. (St. Louis, Mo., U.S.A.) and FXa-1 was from Nycomed (Oslo, Norway).
(§6) Serine proteinases were incubated with various concentrations of Kunitz Domain variant for 30 min. Substrate (0.6 mM) was then added and residual proteinase activity was measured at 405 nm.

Porcine trypsin = molecular target: T2, Porcine trypsin (Sus scrofa, UniProt P00761); experiment: Inhibition of serine proteinases: trypsin, peptidyl nitroanilide substrate, residual activity at 405 nm; type: biochemical; conditions: Example 8; enzyme 10 nM, substrate S2251 0.6 mM, 30 min incubation; read-out: Apparent Ki (nM), Trypsin
T2 construct: purchased Novo Nordisk (Bagsvaerd, Denmark; the applicant itself)
Method: as §1, §2, §3, §4, §5, §6
(§7) The four variants were purified from yeast culture medium. Their concentrations were determined from the absorbance at 214 nm using BTPI as a standard. Porcine trypsin was obtained from Novo Nordisk A/S (Bagsvaerd, Denmark, bovine chymotrypsin (TLCK treated) was obtained from Sigma Chemical Co. (St. Louis, Mo., U.S.A.). Truncated human recombinant tissue factor was obtained from Corvas (San Diego, Calif., U.S.A.). Human plasmin was from Kabi (Stockholm, Sweden). Human neutrophil cathepsin G and elastase were purified from extracts of PMNs according to the method described by Baugh and Travis (Biochemistry 15 (1976) 836-843).
(§8) Peptidyl nitroanilide substrates, S2251, S2586 were from Kabi (Stockholm, Sweden). S7388 and M4765 were from Sigma Chemical Co. (St. Louis, Mo., U.S.A.).
(§9) Serine proteinases were incubated with various concentrations of the variants for 30 min. Substrate ([…]) was then added and residual proteinase activity was measured at 405 nm.

Bovine chymotrypsin = molecular target: T3, Bovine chymotrypsin (Bos taurus, UniProt P00766); experiment: Inhibition of serine proteinases: chymotrypsin; type: biochemical; conditions: Example 8; enzyme 2.5 nM, substrate S2586 0.6 mM, 30 min incubation; read-out: Apparent Ki (nM), chymotrypsin
T3 construct: purchased Sigma Chemical Co. (St. Louis, Mo., U.S.A.)
Method: as §4, §5, §6, §7, §8, §9

plasma kallikrein [4] = molecular target: T4, plasma kallikrein (Homo sapiens, UniProt P03952); experiment: Inhibition of serine proteinases: plasma kallikrein; type: biochemical; conditions: Example 8; enzyme 3 nM, substrate S2302 0.6 mM, 30 min incubation; read-out: Apparent Ki (nM), Pl. kallikrein
Method: as §1, §2, §3, §4, §5, §6
Target sequence in this assay (P03952 391-638 limits assumed): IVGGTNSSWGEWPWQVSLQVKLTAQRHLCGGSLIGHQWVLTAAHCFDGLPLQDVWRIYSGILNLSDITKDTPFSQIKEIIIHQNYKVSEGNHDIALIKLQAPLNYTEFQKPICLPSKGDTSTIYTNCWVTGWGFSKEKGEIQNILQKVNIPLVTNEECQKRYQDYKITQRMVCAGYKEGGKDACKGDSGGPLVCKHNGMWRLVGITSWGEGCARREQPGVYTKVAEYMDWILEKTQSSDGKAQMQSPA
Target sequence in this assay (P03952 20-390 limits assumed): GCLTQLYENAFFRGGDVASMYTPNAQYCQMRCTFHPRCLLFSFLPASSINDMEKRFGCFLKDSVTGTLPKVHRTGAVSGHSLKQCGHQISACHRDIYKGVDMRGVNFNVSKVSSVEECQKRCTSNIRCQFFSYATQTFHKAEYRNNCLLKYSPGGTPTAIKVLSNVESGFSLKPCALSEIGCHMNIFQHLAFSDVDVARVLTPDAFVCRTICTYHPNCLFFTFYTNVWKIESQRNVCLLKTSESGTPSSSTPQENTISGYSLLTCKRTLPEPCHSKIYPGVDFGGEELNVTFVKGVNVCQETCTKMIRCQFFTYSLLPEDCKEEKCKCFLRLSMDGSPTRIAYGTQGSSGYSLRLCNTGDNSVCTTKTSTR

Human plasmin [5] = molecular target: T5, Human plasmin (Homo sapiens, UniProt P00747); experiment: Inhibition of serine proteinases: plasmin; type: biochemical; parameters: human plasmin and human plasma kallikrein was from Kabi (Stockholm, Sweden); purchased Kabi (Stockholm, Sweden); conditions: Example 8; enzyme 4 nM, substrate S2251 0.6 mM, 30 min incubation; read-out: Apparent Ki (nM), Plasmin
Method: as §1, §2, §3, §4, §5, §6, §7, §8, §9
Target sequence in this assay (P00747 581-810 limits assumed): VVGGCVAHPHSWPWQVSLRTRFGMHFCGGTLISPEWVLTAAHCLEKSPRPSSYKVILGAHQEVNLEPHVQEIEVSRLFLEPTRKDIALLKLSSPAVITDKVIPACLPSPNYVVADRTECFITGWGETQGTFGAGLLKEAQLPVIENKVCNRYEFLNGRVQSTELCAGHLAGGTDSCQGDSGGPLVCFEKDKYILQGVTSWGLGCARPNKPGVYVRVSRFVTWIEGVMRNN
Target sequence in this assay (P00747 97-580 limits assumed): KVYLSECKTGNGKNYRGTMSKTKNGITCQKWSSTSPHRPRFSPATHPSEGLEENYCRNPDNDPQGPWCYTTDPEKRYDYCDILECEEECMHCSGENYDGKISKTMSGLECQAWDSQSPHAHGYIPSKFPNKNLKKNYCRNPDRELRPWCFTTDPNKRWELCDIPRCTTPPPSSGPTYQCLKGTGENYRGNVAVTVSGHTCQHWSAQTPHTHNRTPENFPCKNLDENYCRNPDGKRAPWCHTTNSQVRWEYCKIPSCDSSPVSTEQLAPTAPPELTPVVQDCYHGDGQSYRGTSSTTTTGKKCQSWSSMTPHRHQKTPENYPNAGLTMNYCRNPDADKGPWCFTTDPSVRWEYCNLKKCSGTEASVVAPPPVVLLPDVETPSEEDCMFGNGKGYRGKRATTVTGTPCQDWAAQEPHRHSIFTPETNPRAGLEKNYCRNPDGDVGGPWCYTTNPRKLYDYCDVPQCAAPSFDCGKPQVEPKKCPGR

[6] = molecular target: Porcine trypsin (porcine) (UniProt P00761); experiment: proteinase inhibition: enzyme incubated 30 min with KFN 1593, residual activity on peptidyl nitroanilide substrate at 405 nm
[7] = molecular target: Factor Xa (as used in Example 3) (Homo sapiens (Human)) (UniProt P00742); experiment: as above
[8] = molecular target: Porcine trypsin (porcine) (UniProt P00761)
[9] = molecular target: bovine chymotrypsin (TLCK treated) (bovine) (UniProt P00766)
[10] = molecular target: bovine chymotrypsin (TLCK treated) (bovine) (UniProt P00766); experiment: apparent Ki; 2.5 nM chymotrypsin, substrate S2586, 30 min preincubation, residual activity at 405 nm
[11] = molecular target: bovine chymotrypsin (TLCK treated) (bovine) (UniProt P00766); remark: listed apart in the source
[12] = molecular target: Porcine trypsin (porcine) (UniProt P00761); remark: listed apart in the source
[13] = molecular target: glandular kallikrein (as used in Example 8) (Sus scrofa (Pig)) (UniProt P00752)
plasma kallikrein [14] = molecular target: T4, plasma kallikrein
Human plasmin [15] = molecular target: T5, Human plasmin
[16] = molecular target: glandular kallikrein (as used in Example 8) (Sus scrofa (Pig)) (UniProt P00752); experiment: apparent Ki; 1 U/ml glandular kallikrein, substrate S2266, 30 min preincubation, residual activity at 405 nm
plasma kallikrein [17] = molecular target: T4, plasma kallikrein; experiment: apparent Ki; 3 nM plasma kallikrein, substrate S2302, 30 min preincubation, residual activity at 405 nm
Human plasmin [18] = molecular target: T5, Human plasmin; experiment: apparent Ki; 4 nM plasmin, substrate S2251, 30 min preincubation, residual activity at 405 nm
[19] = molecular target: Porcine trypsin (porcine) (UniProt P00761); experiment: apparent Ki; 10 nM trypsin, substrate S2251, 30 min preincubation, residual activity at 405 nm

T2 sequence (P00761 9-231): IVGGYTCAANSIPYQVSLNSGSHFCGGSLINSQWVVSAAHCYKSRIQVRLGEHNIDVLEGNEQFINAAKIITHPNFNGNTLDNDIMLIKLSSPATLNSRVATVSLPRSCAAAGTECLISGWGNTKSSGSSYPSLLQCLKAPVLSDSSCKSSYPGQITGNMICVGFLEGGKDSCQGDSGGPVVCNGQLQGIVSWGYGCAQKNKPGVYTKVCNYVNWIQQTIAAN
T1 sequence (P00752 8-246): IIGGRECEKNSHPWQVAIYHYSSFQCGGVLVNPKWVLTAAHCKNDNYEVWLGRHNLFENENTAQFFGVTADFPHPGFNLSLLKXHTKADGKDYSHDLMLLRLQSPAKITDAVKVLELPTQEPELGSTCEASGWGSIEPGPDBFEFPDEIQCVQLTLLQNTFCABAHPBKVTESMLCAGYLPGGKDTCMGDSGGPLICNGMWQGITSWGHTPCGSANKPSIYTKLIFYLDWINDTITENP

Ki [10] [nM] | apparent Ki [11] [nM] | apparent Ki [12] [nM] | apparent Ki [13] [nM] | apparent Ki (plasma kallikrein [14]) [nM] | apparent Ki (Human plasmin [15]) [nM] | Ki [16] [nM] | Ki (plasma kallikrein [17]) [nM] | Ki (Human plasmin [18]) [nM] | Ki [19] [nM] | Substance | further results
 |  |  |  |  |  |  |  |  |  | [R15V, G16A]-TFPI-2 from yeast strain KFN-1897 (from UniProt P10646) | Ki [1]: 0.46 nM; apparent Ki [2]: 0.46 nM
 |  |  |  |  |  |  |  |  |  | [R15K, G16A, Y17R, T19I, L39R, E46K]-TFPI-2 [KFN 1868] | Ki [3]: > 100 nM; Ki (Porcine trypsin): < 1 nM; Ki (Bovine chymotrypsin): 20 nM; Ki (plasma kallikrein [4]): > 100 nM; Ki (Human plasmin [5]): 3 nM
 |  |  |  |  |  |  |  |  |  | TFPI-2, the second Kunitz domain of tissue factor pathway inhibitor, from yeast strain KFN-1593 (from UniProt P10646) | Ki [6]: 5 nM; Ki [7]: 150 nM; residual proteinase activity at 405 nm [8]: 5 nM
< 5 |  |  |  |  |  |  |  |  |  | [R15L, G16A]-TFPI-2 from yeast strain KFN-1893 (from UniProt P10646) | Ki [1]: 0.23 nM; apparent Ki [9]: < 5 nM; apparent Ki [2]: 0.23 nM
20 | 20 | < 1 | > 100 | > 100 | 3 | > 100 | > 100 | 3 | < 1 | [R15K, G16A, Y17R, T19I, L39R, E46K]-TFPI-2 from yeast strain KFN-1868 (from UniProt P10646) | 
 |  |  |  |  |  |  |  |  |  | [R15K, G16A, Y17R, T19I, L39R]-TFPI-2 [KFN 1867] | Ki [3]: > 100 nM; Ki (Porcine trypsin): < 1 nM; Ki (Bovine chymotrypsin): 20 nM; Ki (plasma kallikrein [4]): > 100 nM; Ki (Human plasmin [5]): 3 nM
10 | 10 | < 1 | > 100 | > 100 | 3 | > 100 | > 100 | 3 | < 1 | [R15K, G16A, Y17R, T19I]-TFPI-2 from yeast strain KFN-1811 (from UniProt P10646) | 
20 | 20 | < 1 | > 100 | > 100 | 3 | > 100 | > 100 | 3 | < 1 | [R15K, G16A, Y17R, T19I, L39R]-TFPI-2 from yeast strain KFN-1867 (from UniProt P10646) | 
